# US20240287172A1 (SCIRHOM, published 2024)
# What was measured:
# [1] = biological target: T1, hiR2-FL-T555A-T7 (human, UniProt Q6PJF5 1-856); assay: FACS on MEF-DKO cells expressing the variant, 3 µg/ml antibody
# T1 sequence: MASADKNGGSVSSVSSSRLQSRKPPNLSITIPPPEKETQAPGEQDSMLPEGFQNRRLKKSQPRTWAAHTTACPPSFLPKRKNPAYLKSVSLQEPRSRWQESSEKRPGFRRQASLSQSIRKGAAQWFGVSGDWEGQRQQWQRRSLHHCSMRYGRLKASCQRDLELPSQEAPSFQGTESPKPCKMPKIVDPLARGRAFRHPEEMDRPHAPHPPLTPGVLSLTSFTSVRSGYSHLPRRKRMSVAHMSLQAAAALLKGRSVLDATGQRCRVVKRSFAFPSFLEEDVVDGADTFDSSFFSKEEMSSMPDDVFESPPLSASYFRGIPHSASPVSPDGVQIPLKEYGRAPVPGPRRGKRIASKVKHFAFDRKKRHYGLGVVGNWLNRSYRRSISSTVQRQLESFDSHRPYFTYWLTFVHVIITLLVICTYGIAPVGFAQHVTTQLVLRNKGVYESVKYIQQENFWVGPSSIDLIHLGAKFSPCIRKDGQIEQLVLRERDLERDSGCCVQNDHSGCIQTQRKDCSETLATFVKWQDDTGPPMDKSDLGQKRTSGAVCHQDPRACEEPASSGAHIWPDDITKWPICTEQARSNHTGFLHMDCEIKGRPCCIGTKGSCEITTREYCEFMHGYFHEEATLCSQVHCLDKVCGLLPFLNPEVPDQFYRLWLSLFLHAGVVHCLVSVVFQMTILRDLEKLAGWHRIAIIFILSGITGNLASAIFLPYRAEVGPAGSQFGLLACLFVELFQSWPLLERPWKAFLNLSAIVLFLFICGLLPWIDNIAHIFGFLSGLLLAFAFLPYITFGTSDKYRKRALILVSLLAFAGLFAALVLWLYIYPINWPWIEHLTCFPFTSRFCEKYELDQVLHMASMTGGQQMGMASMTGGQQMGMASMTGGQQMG
# How it was run: (§1)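 Read-out is PE fluorescence by flow cytometry after two-step staining: antibody at 3 μg/ml for 1 hour on ice, then PE-labelled goat anti-mouse IgG F(ab′)2 (1:100) for 1 hour on ice.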
# [2] = biological target: T2, hiR2-FL-S583A-T7 (human, UniProt Q6PJF5 1-856); assay: as above
# T2 sequence: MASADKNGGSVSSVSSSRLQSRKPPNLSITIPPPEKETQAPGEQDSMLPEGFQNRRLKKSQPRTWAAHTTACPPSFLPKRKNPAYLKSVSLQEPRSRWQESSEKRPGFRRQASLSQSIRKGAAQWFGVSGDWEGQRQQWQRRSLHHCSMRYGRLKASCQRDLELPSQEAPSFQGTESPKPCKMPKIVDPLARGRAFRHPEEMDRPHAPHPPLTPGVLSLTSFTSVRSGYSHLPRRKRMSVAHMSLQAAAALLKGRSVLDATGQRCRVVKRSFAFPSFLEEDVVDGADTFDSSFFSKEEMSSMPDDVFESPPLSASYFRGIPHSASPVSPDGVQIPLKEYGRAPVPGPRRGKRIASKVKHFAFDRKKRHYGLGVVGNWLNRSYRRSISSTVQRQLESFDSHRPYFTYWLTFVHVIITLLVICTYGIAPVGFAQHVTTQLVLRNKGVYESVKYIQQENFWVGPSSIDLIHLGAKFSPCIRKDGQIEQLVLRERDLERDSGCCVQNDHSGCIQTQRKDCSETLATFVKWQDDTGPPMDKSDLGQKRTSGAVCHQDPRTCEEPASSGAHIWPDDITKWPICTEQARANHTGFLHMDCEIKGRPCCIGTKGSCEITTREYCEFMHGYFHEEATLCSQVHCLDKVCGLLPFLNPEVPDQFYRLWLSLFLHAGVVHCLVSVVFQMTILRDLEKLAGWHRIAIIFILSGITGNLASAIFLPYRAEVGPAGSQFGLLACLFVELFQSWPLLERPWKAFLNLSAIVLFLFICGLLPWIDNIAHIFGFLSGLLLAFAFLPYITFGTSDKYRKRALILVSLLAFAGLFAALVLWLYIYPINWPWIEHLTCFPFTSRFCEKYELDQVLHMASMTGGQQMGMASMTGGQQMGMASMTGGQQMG
# How it was run: as §1
binder,measurement,setting,value
"antibody 3 (antibody, V domains shown, mouse IgG, kappa light chain; also called clone #3; purified antibody 3) VH: QVTLKESGPGILQPSQTLSLTCSFSGFSLTTFAMGIGWVRQPSGKGLEWLAHIWWDGEKYNNPVLKSRLTISKDTSKNQVFLRIANVDTPDTATYYCARISSIYYIIDNWGQGTSVTVSS VL: DIVLTQSPATLSVTPGHSVSLSCRASQSISNNLHWYQKKSHESPRLLIKYVSQSISGIPSRFSGSGSGTDFTLSINSVETEDFGMYFCQQSYNWPLTFGAGTKLELK",loss of binding vs wild type,[1],≥ 30%
same,loss of binding vs wild type,[2],≥ 30%
